In paper PMC8516343:

Tests used:
βTrCP1 [1] = target: βTrCP1 (UniProt Q9Y297); experiment: anti-Myc co-IP, anti-Flag blot; conditions: reference: Myc-ATF4-WT with Flag-CK1δ; sites S219
βTrCP1 [2] = target: βTrCP1 (UniProt Q9Y297); experiment: co-immunoprecipitation; conditions: reference: ATF4 wild type; sites S219

Row | Substance | binding against the reference (βTrCP1 [1]) | binding against the reference (βTrCP1 [2])
1 | ATF4 (from UniProt P18848) Myc-ATF4-S219A with Flag-CK1δ | weaker | –
2 | ATF4 (from UniProt P18848) ATF4-S219A | – | lost
